What was measured:
A366 peptide = experiment: screening of kinases for S366 of STING (33P-ATP); assay type: biochemical; conditions: kinase mixed with peptide and 33P-ATP
Procedure: (§1) The activity of 217 protein kinase targets were evaluated against 2 peptides (A366 and S366) as substrate. Protein kinases were mixed with each peptide and ^33P-ATP and then activity (CPM) was measured. The below kinases were identified as phosphorylating S366 in STING. Identification of kinases which target this serine opens up novel avenues for drug discovery. Drugs that target this association may inhibit STING activity and be used for therapeutic purposes to inhibit STING activity. STING over activity may lead to inflammatory diseases which can exacerbate cancer.

S366 peptide = experiment: screening of kinases for S366 of STING (33P-ATP); assay type: biochemical; conditions: for Fold inducton: S366 peptide vs A366 peptide; for Activity, S366 peptide: kinase mixed with peptide and 33P-ATP
Procedure: as §1

| Activity (cpm), kinase mixed with peptide and 33P-ATP (S366 peptide of STING) | Activity (cpm), kinase mixed with peptide and 33P-ATP (A366 peptide of STING) | Molecule | Activity, A366 peptide (A366 peptide) | Fold inducton (S366 peptide) | Activity, S366 peptide (S366 peptide) |
| --- | --- | --- | --- | --- | --- |
| 35600 cpm | 5510 cpm | NEK6 (from UniProt Q9HC98) (enzyme) | – | – | – |
| 19100 cpm | 3620 cpm | NEK7 (from UniProt Q8TDX7) (enzyme) | – | – | – |
| – | – | NEK7: protein kinase | 3619 cpm | 5.28 | 19112 cpm |
| 3720 cpm | 1410 cpm | PIM2 (from UniProt Q9P1W9) (enzyme) | – | – | – |
| – | – | NEK6: protein kinase | 5512 cpm | 6.45 | 35556 cpm |
| 12800 cpm | 6810 cpm | PKC (isoform illegible) (enzyme) | – | – | – |
| – | – | PIM2: protein kinase | 1414 cpm | 2.63 | 3715 cpm |
| 26200 cpm | 15600 cpm | CK1 (isoform illegible) (enzyme) | – | – | – |
| 16000 cpm | 1330 cpm | RIPK5 (enzyme) SICSQFRTRLNSSHEAFAASLRQLEAGHSGRLEKTEDLWLRVRKDHAPRLARLSLESCSLQDVLLHRKPKLGQELGRGQYGVVYLCDNWGGHFPCALKSVVPPDEKHWNDLALEFHYMRSLPKHERLVDLHGSVIDYNYGGGSSIAVLLIMERLHRDLYTGLKAGLTLETRLQIALDVVEGIRFLHSQGLVHRDIKLKNVLLDKQNRAKITDLGFCKPEAMMSGSIVGTPIHMAPELFTGKYDNSVDVYAFGILFWYICSGSVKLPEAFERCASKDHLWNNVRRGARPERLPVFDEECWQLMEACWDGDPLKRPLLGIVQPMLQGIMNRLCKSNSEQPNRGLDDST | 1327 cpm | 12.03 | 15966 cpm |
| 50400 cpm | 7440 cpm | IRAK4 (enzyme) MNKPITPSTYVRCLNVGLIRKLSDFIDPQEGWKKLAVAIKKPSGDDRYNQFHIRRFEALLQTGKSPTSELLFDWGTTNCTVGDLVDLLIQNEFFAPASLLLPDAVPKTANTLPSKEAITVQQKQMPFCDKDRTLMTPVQNLEQSYMPPDSSSPENKSLEVSDTRFHSFSFYELKNVTNNFDERPISVGGNKMGEGGFGVVYKGYVNNTTVAVKKLAAMVDITTEELKQQFDQEIKVMAKCQHENLVELLGFSSDGDDLCLVYVYMPNGSLLDRLSCLDGTPPLSWHMRCKIAQGAANGINFLHENHHIHRDIKSANILLDEAFTAKISDFGLARASEKFAQTVMTSRIVGTTAYMAPEALRGEITPKSDIYSFGVVLLEIITGLPAVDEHREPQLLLDIKEEIEDEEKTIEDYIDKKMNDADSTSVEAMYSVASQCLHEKKNKRPDIKKVQQLLQEMTAS | 7435 cpm | 6.77 | 50353 cpm |
| 6890 cpm | 2430 cpm | IKKα (enzyme) MERPPGLRPGAGGPWEMRERLGTGGFGNVCLYQHRELDLKIAIKSCRLELSTKNRERWCHEIQIMKKLNHANVVKACDVPEELNILIHDVPLLAMEYCSGGDLRKLLNKPENCCGLKESQILSLLSDIGSGIRYLHENKIIHRDLKPENIVLQDVGGKIIHKIIDLGYAKDVDQGSLCTSFVGTLQYLAPELFENKPYTATVDYWSFGTMVFECIAGYRPFLHHLQPFTWHEKIKKKDPKCIFACEEMSGEVRFSSHLPQPNSLCSLVVEPMENWLQLMLNWDPQQRGGPVDLTLKQPRCFVLMDHILNLKIVHILNMTSAKIISFLLPPDESLHSLQSRIERETGINTGSQELLSETGISLDPRKPASQCVLDGVRGCDSYMVYLFDKSKTVYEGPFASRSLSDCVNYIVQDSKIQLPIIQLRKVWAEAVHYVSGLKEDYSRLFQGQRAAMLSLLRYNANLTKMKNTLISASQQLKAKLEFFHKSIQLDLERYSEQMTYGISSEKMLKAWKEMEEKAIHYAEVGVIGYLEDQIMSLHAEIMELQKSPYGRRQGDLMESLEQRAIDLYKQLKHRPSDHSYSDSTEMVKIIVHTVQSQDRVLKELFGHLSKLLGCKQKIIDLLPKVEVALSNIKEADNTVMFMQGKRQKEIWHLLKIACTQSSARSLVGSSLEGAVTPQTSAWLPPTSAEHDHSLSCVVTPQDGETSAQMIEENLNCLGHLSTIIHEANEEQGNSMMNLDWSWLTE | 2432 cpm | 2.83 | 6889 cpm |
| 162000 cpm | 8700 cpm | NEK2 (enzyme) MPSRAEDYEVLYTIGTGSYGRCQKIRRKSDGKILVWKELDYGSMTEAEKQMLVSEVNLLRELKHPNIVRYYDRIIDRTNTTLYIVMEYCEGGDLASVITKGTKERQYLDEEFVLRVMTQLTLALKECHRRSDGGHTVLHRDLKPANVFLDGKQNVKLGDFGLARILNHDTSFAKTFVGTPYYMSPEQMNRMSYNEKSDIWSLGCLLYELCALMPPFTAFSQKELAGKIREGKFRRIPYRYSDELNEIITRMLNLKDYHRPSVEEILENPLIADLVADEQRRNLERRGRQLGEPEKSQDSSPVLSELKLKEIQLQERERALKAREERLEQKEQELCVRERLAEDKLARAENLLKNYSLLKERKFLSLASNPELLNLPSSVIKKKVHFSGESKENIMRSENSESQLTSKSKCKDLKKRLHAAQLRAQALSDIEKNYQLKSRQILGMR | 8702 cpm | 18.65 | 162331 cpm |
| 26300 cpm | 6980 cpm | NEK9 (enzyme) MSVLGEYERHCDSINSDFGSESGGCGDSSPGPSASQGPRAGGGAAEQEELHYIPIRVLGRGAFGEATLYRRTEDDSLVVWKEVDLTRLSEKERRDALNEIVILALLQHDNIIAYYNHFMDNTTLLIELEYCNGGNLYDKILRQKDKLFEEEMVVWYLFQIVSAVSCIHKAGILHRDIKTLNIFLTKANLIKLGDYGLAKKLNSEYSMAETLVGTPYYMSPELCQGVKYNFKSDIWAVGCVIFELLTLKRTFDATNPLNLCVKIVQGIRAMEVDSSQYSLELIQMVHSCLDQDPEQRPTADELLDRPLLRKRRREMEEKVTLLNAPTKRPRSSTVTEAPIAVVTSRTSEVYVWGGGKSTPQKLDVIKSGCSARQVCAGNTHFAVVTVEKELYTWVNMQGGTKLHGQLGHGDKASYRQPKHVEKLQGKAIRQVSCGDDFTVCVTDEGQLYAFGSDYYGCMGVDKVAGPEVLEPMQLNFFLSNPVEQVSCGDNHVVVLTRNKEVYSWGCGEYGRLGLDSEEDYYTPQKVDVPKALIIVAVQCGCDGTFLLTQSGKVLACGLNEFNKLGLNQCMSGIINHEAYHEVPYTTSFTLAKQLSFYKIRTIAPGKTHTAAIDERGRLLTFGCNKCGQLGVGNYKKRLGINLLGGPLGGKQVIRVSCGDEFTIAATDDNHIFAWGNGGNGRLAMTPTERPHGSDICTSWPRPIFGSLHHVPDLSCRGWHTILIVEKVLNSKTIRSNSSGLSIGTVFQSSSPGGGGGGGGGEEEDSQQESETPDPSGGFRGTMEADRGMEGLISPTEAMGNSNGASSSCPGWLRKELENAEFIPMPDSPSPLSAAFSESEKDTLPYEELQGLKVASEAPLEHKPQVEASSPRLNPAVTCAGKGTPLTPPACACSSLQVEVERLQGLVLKCLAEQQKLQQENLQIFTQLQKLNKKLEGGQQVGMHSKGTQTAKEEMEMDPKPDLDSDSWCLLGTDSCRPSL | 6977 cpm | 3.77 | 26284 cpm |
| 13100 cpm | 7260 cpm | GRK7 (enzyme) MVDMGALDNLIANTAYLQARKPSDCDSKELQRRRRSLALPGLQGCAELRQKLSLNFHSLCEQQPIGRRLFRDFLATVPTFRKAATFLEDVQNWELAEEGPTKDSALQGLVATCASAPAPGNPQPFLSQAVATKCQAATTEEERVAAVTLAKAEAMAFLQEQPFKDFVTSAFYDKFLQWKLFEMQPVSDKYFTEFRVLGKGGFGEVCAVQVKNTGKMYACKKLDKKRLKKKGGEKMALLEKEILEKVSSPFIVSLAYAFESKTHLCLVMSLMNGGDLKFHIYNVGTRGLDMSRVIFYSAQIACGMLHLHELGIVYRDMKPENVLLDDLGNCRLSDLGLAVEMKGGKPITQRAGTNGYMAPEILMEKVSYSYPVDWFAMGCSIYEMVAGRTPFKDYKEKVSKEDLKQRTLQDEVKFQHDNFTEEAKDICRLFLAKKPEQRLGSREKSDDPRKHHFFKTINFPRLEAGLIEPPFVPDPSVVYAKDIAEIDDFSEVRGVEFDDKDKQFFKNFATGAVPIAWQEEIIETGLFEELNDPNRPTGCEEGNSSKSGVCLLL | 7263 cpm | 1.81 | 13124 cpm |
| 24900 cpm | 11300 cpm | MEKK1 (enzyme) NQKCKEKMEAEEEEALAIAMAMSASQDALPIVPQLQVENGEDIIIIQQDTPETLPGHTKAKQPYREDTEWLKGQQIGLGAFSSCYQAQDVGTGTLMAVKQVTYVRNTSSEQEEVVEALREEIRMMSHLNHPNIIRMLGATCEKSNYNLFIEWMAGGSVAHLLSKYGAFKESVVINYTEQLLRGLSYLHENQIIHRDVKGANLLIDSTGQRLRIADFGAAARLASKGTGAGEFQGQLLGTIAFMAPEVLRGQQYGRSCDVWSVGCAIIEMACAKPPWNAEKHSNHLALIFKIASATTAPSIPSHLSPGLRDVALRCLELQPQDRPPSRELLKHPVFRTTW | 11316 cpm | 2.20 | 24866 cpm |

— patent publication US20180085432A1, “STING (Stimulator of Interferon Genes), A Regulator of Innate Immune Responses” (University of Miami, priority 2008, published 2018)
